Results published in the supplement of paper PMC9170038.

System: MS2 coat protein
Assay: apparent KD of MS2 coat protein; designed switch direction (-1 OFF switch, 1 ON switch): -1; higher = weaker reporter binding
In short: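 The buffer was Tris-HCl pH 7.5 with KCl, MgCl2, BSA, DTT, tRNA and Tween-20. In it, SNAP-549-labelled MS2 coat protein was titrated in doubling steps from 0.7 or 1.5 nM to 3 µM over chip-bound RNA switches transcribed by stalled E. coli RNA polymerase on Illumina chips. Apparent KD is the per-design median over clusters of curve fits to normalised fluorescence.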

[1] = Eterna round: R95, input ligand: FMN 200 uM
[2] = Eterna round: R95, input ligand: microRNA oligo, concentration not stated
[3] = Eterna round: R95, input ligand: none
[4] = input ligand: microRNA oligo, concentration not stated

## AUGUUGCGAGGAUAUAUUUACUUGUUGUUAUUUGGUUGGGAACAUGAGGAUCACCCAUGUAGAAGGUGCAUAAC [JR_Ex2_Sub035] (Eterna round: R97, puzzle: Exclusion 2)
Input ligand: FMN 200 uM
  apparent KD of MS2 coat protein: 58.9 nM
Input ligand: none
  apparent KD of MS2 coat protein: 62.5 nM

## AUUAAAACAUAGGAUAUCGAAAUUAUUAUUUAACGAGAAGGAUGAACAUGAGGAUCACCCAUGUGGUAUCAUGG [Mat - Exclusion 6 - JL Mod - D28] (puzzle: Exclusion 6)
[1]
  apparent KD of MS2 coat protein: 307 nM
[2]
  apparent KD of MS2 coat protein: 367 nM
[3]
  apparent KD of MS2 coat protein: 610 nM

## AUUAUGUUAGGAUAUGCUUAUGGUGGAUAAUCGGAUAUGAUGCAGAAGGGACAUGAGGAUCACCCAUGUACUGA [EX4 #24] (Eterna round: R97, puzzle: Exclusion 4)
Input ligand: FMN 200 uM
  apparent KD of MS2 coat protein: 22.3 nM
Input ligand: none
  apparent KD of MS2 coat protein: 22.7 nM

## AUUAUGUUAGGAUAUGCUUAUGGUGGAUAGUCCAGUAUGGUGUAGAAGGGACAUGAGGAUCACCCAUGUGCUGA [EX4 #33] (Eterna round: R97, puzzle: Exclusion 4)
Input ligand: FMN 200 uM
  apparent KD of MS2 coat protein: 35.2 nM
Input ligand: none
  apparent KD of MS2 coat protein: 34 nM

## AUUGUAUGGAAAGGAUAUAGAAUAUUAUUUUAACAUGAGGAUCACCCAUGUAACCUUAUGUGUAGCUAGAAGGUUCGUUUGUUA [Title] (Eterna round: R96, puzzle: Exclusion NG 2)
[4]
  apparent KD of MS2 coat protein: 69.2 nM

## AUUGUGUUAGGAUAUAACAACUACUAAUAAAUUAGUAGUUGUUAGAAGGAACAUGAGGAUCACCCAUGUAUGAU [-21.1, -20.3 kcal, A 38%] (Eterna round: R97, puzzle: Exclusion 4)
Input ligand: FMN 200 uM
  apparent KD of MS2 coat protein: 60 nM
Input ligand: none
  apparent KD of MS2 coat protein: 29.4 nM

## AUUGUGUUAGGAUAUGCUUAUGGUGGGUAGUCCAGUAUGGAGUAGAAGGGACAUGAGGAUCACCCAUGUGCUCA [EX4 #38] (Eterna round: R97, puzzle: Exclusion 4)
Input ligand: FMN 200 uM
  apparent KD of MS2 coat protein: 215 nM
Input ligand: none
  apparent KD of MS2 coat protein: 137 nM

## AUUGUUUAUGUAGGAUAUGCCUGGCGUGCCUUCGCAGAAGGACAUGAGGAUCACCCAUGUAUUGCGGUCUGCGUUCAGAUCGCC [salish99_ExNG1_r4_027] (Eterna round: R96, puzzle: Exclusion NG 1)
Input ligand: FMN 200 uM
  apparent KD of MS2 coat protein: 21.3 nM
[4]
  apparent KD of MS2 coat protein: 15 nM
Input ligand: none
  apparent KD of MS2 coat protein: 19.3 nM

## AUUGUUUAUGUAGGAUAUGCCUGGCGUGCCUUUGCAGAAGGACAUGAGGAUCACCCAUGUAACAUGAGGCUCACCCAUGUCGCU [salish99_ExNG1_r04_112] (Eterna round: R96, puzzle: Exclusion NG 1)
Input ligand: FMN 200 uM
  apparent KD of MS2 coat protein: 432 nM
[4]
  apparent KD of MS2 coat protein: 220 nM
Input ligand: none
  apparent KD of MS2 coat protein: 311 nM

## AUUUAAUUUAGCGAGAUCACAUGAGGAUCACCCAUGUAUAUAUAGGAUAUCAGCUCGUUUAGAGCUGAGAAGGAUAUAUACCGC [ExNG3/7-A2] (Eterna round: R96, puzzle: Exclusion NG 3)
[4]
  apparent KD of MS2 coat protein: 74 nM

## AUUUGCACGCUGCGGUCCUACAUGAGGAUCACCCAUGUGGUCUGGUGGCGUGGGUCGCCGGACUUGGCUCGUCUUGA [salish99_S_TOV1_R5_032] (Eterna round: R97, puzzle: Sensor, turn-off variant 1)
Input ligand: FMN 200 uM
  apparent KD of MS2 coat protein: 17.5 nM
Input ligand: none
  apparent KD of MS2 coat protein: 17.9 nM

## AUUUUAAUAUAGGAUAUCGAAUUUAUUAUUUAACGAGAAGGAUGAACAUGAGGAUCACCCAUGUGGUAUCAUGG [JL-ex6-3.03] (puzzle: Exclusion 6)
[1]
  apparent KD of MS2 coat protein: 214 nM
[2]
  apparent KD of MS2 coat protein: 263 nM
[3]
  apparent KD of MS2 coat protein: 178 nM

## AUUUUGUCAGGAUAUGACUAGUAGCACGAAAGUGCUACUACUUAGAAGGGACAUGAGGAUCACCCAUGUAUUCC [Bring Us a Shrubbery-10] (puzzle: Exclusion 4)
[2]
  apparent KD of MS2 coat protein: 15.1 nM

## AUUUUGUCAGGAUAUUGUUAGUUUAGUUGUUUGUAUUAGUUCGAGAAGGGACAUGAGGAUCACCCAUGUGAAAA [Ex4 #71] (Eterna round: R97, puzzle: Exclusion 4)
Input ligand: FMN 200 uM
  apparent KD of MS2 coat protein: 38.9 nM
Input ligand: none
  apparent KD of MS2 coat protein: 37.2 nM

## CAAAAGAAAGGAUAUACUUGAGGAUCACCCAAGUAUGCCCGCUGAAGCGGGCCCUUGAGUAGAAGGUUCAUAAA [Ened] (Eterna round: R97, puzzle: Exclusion 3)
Input ligand: FMN 200 uM
  apparent KD of MS2 coat protein: 33.2 nM
Input ligand: none
  apparent KD of MS2 coat protein: 15.6 nM

## CAAAAGCUAGGAUAUACAUGAGGAUCACCCAUGUCGCACUCUAGACACGCCAUACAUAGUAGAAGGAGCAAUCU [EX3 B.18] (Eterna round: R97, puzzle: Exclusion 3)
Input ligand: FMN 200 uM
  apparent KD of MS2 coat protein: 21.7 nM
Input ligand: none
  apparent KD of MS2 coat protein: 17.9 nM

## CAAGCAGAAUAAAGGUCCGACAUGAGGAUCACCCAUGUUCGUCGGGAUAUGCUUCCUUUACGAGGGAGCACCAGAAA [Eternabot (L2) Solution 25] (Eterna round: R97, puzzle: Sensor, turn-off variant 1)
Input ligand: FMN 200 uM
  apparent KD of MS2 coat protein: 34.3 nM
Input ligand: none
  apparent KD of MS2 coat protein: 38.2 nM

## CAAUAUUACUGAGGAUAUCCUAGUGUAUUUCAGGGAGAAGGCGGACUCAACAUGAGGAUCACCCAUGUAAGACGGGUACUAGAU [Ex NG1 #17] (Eterna round: R96, puzzle: Exclusion NG 1)
Input ligand: FMN 200 uM
  apparent KD of MS2 coat protein: 89.3 nM
[4]
  apparent KD of MS2 coat protein: 42.7 nM
Input ligand: none
  apparent KD of MS2 coat protein: 81.4 nM

## CACAUGGGAACAUGAGGAUCACCCAUGUGAUAGAAAGGUAUGGAGGAUAUCAUACCAUCGCCGUGUGAGAAGGUCAGGCCAACA [Eternabot solution 46] (Eterna round: R96, puzzle: Exclusion NG 3)
Input ligand: FMN 200 uM
  apparent KD of MS2 coat protein: 409 nM
[4]
  apparent KD of MS2 coat protein: 151 nM
Input ligand: none
  apparent KD of MS2 coat protein: 388 nM

## CACCGUUAACUAGGAUAUCGUACAUGAGGAUCACCCAUGUAAUAAAUGAGAAUUUCGGAUGUAUGCGAGAAGGAGUAAAUCGGC [Ostricism 46 - Jieux - Exclusion NG 2] (Eterna round: R96, puzzle: Exclusion NG 2)
Input ligand: FMN 200 uM
  apparent KD of MS2 coat protein: 40.8 nM
[4]
  apparent KD of MS2 coat protein: 27.6 nM
Input ligand: none
  apparent KD of MS2 coat protein: 37.3 nM

## CACCGUUACACAGGAUAUGUUACAUGAGGAUCACCCAUGUAAUAAAUGAGAAUUUCGAAUGUAAUACAGAAGGGUGGAAUCGGC [Ostricism 73 - Jieux - Exclusion NG 2] (Eterna round: R96, puzzle: Exclusion NG 2)
Input ligand: FMN 200 uM
  apparent KD of MS2 coat protein: 34.7 nM
[4]
  apparent KD of MS2 coat protein: 27.9 nM
Input ligand: none
  apparent KD of MS2 coat protein: 28.4 nM

## CACCGUUACAGAGGAUAUGAUACAUGAGGAUCACCCAUGUAAUAAAUGAGAAUUUCGAAUGUACCUCAGAAGGCUGGAACCGGC [Ostricism 79 - Jieux - Exclusion NG 2] (Eterna round: R96, puzzle: Exclusion NG 2)
[4]
  apparent KD of MS2 coat protein: 31.1 nM

## CACCGUUACGUAGGAUAUAGUACAUGAGGAUCACCCAUGUAAUAAAUGAGAAUUUCGGAUGUAUGCUAGAAGGACGAAAUCGGC [Ostricism 50 - Jieux - Exclusion NG 2] (Eterna round: R96, puzzle: Exclusion NG 2)
[4]
  apparent KD of MS2 coat protein: 39.9 nM

## CACCGUUAGUGAGGAUAUAGUACAUGAGGAUCACCCAUGUAAUAAAUGAGAAUUUCGGAUGUAUGCUAGAAGGCACAAAUCGGC [Ostricism 51 - Jieux - Exclusion NG 2] (Eterna round: R96, puzzle: Exclusion NG 2)
[4]
  apparent KD of MS2 coat protein: 47.2 nM

## CACGAAGAGUGAGGAUAUGUGCGACAAAGUUGCACAGAAGGCACAUGAGGAUCACCCAUGUAAGCUAGGUCGAAAGACCUAGCG [Omei Exc(NG)1 Av3] (Eterna round: R96, puzzle: Exclusion NG 1)
Input ligand: FMN 200 uM
  apparent KD of MS2 coat protein: 47.5 nM
[4]
  apparent KD of MS2 coat protein: 20.2 nM
Input ligand: none
  apparent KD of MS2 coat protein: 23.8 nM
